This note sets out measurements from US20220119534A1 (DRAGONFLY THERAPEUTICS, published 2022).

For assay [1], the target named is T1, human CLEC12A expressed on cells (human, UniProt Q5QGZ9 1-265).
T1 construct: Transduced isogenic cells or endogenous expression on AML cells; also called RMA-hCLEC12A; Ba/F3-hCLEC12A
T1 sequence: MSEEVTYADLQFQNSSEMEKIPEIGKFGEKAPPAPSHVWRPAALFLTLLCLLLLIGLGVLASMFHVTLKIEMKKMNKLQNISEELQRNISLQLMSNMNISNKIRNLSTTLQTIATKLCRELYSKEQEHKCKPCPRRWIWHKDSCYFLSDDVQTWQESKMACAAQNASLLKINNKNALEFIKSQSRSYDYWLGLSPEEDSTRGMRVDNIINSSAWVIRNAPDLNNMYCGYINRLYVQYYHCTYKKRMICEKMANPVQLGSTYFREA
The assay can be described thus: flow cytometry, PL21 cells.

The target in assay [2] is T2, Human CLEC12A expressed on cells (Ba/F3-hCLEC12A, PL21, HL60) (human, UniProt Q5QGZ9 1-265).
T2 sequence: T1 sequence
The assay can be described thus: cell-based or functional assay.

For assay [3], the target named is T3, human CLEC12A on cells (HL60, PL21, Ba/F3-hCLEC12A) (human, UniProt Q5QGZ9 1-265).
T3 construct: Endogenous on the AML lines HL60 and PL21; brought into mouse Ba/F3 cells by retroviral transduction; The cell line stands under assay; also called CLL-1
T3 sequence: T1 sequence
Briefly: flow cytometry, 40 nM, MFI after 2 h 37 C relative to 2 h on ice, HL60 cells.

The target in assay [4] is T3, human CLEC12A on cells (HL60, PL21, …). Briefly: flow cytometry, 40 nM, MFI after 2 h 37 C relative to 2 h on ice, PL21 cells. In general terms: A flow cytometer gives signals particle by particle.
The target is the same in assay [5]. The assay can be described thus: flow cytometry, PL21 cells.
Assay [6] shares this target. The assay can be described thus: flow cytometry, HL60 cells.
The target is the same in assay [7]. The assay can be described thus: flow cytometry, Ba/F3-hCLEC12A cells.
Assay [8] concerns the target T1, human CLEC12A expressed on cells. The assay can be described thus: flow cytometry, hCLEC12A+ Ba/F3.
Assay [9] has the same target. Briefly: flow cytometry, HL60.
The target in assay [10] is T4, recombinant human CLEC12A-His (human, UniProt Q5QGZ9 65-265).
T4 construct: also called hCLEC12A-His; hCLEC12A
T4 sequence: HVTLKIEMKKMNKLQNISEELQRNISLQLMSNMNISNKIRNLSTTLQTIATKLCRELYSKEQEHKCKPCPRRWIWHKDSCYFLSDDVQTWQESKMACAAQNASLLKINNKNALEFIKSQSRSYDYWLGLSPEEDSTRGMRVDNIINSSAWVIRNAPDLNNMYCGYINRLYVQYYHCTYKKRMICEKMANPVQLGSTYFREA
Briefly: SPR screening, semi-purified.

Residue numbers refer to the chain shown, from its start.

B1: Merus-CLL1 (antibody, V domains shown)
VH: EVQLVQSGAEVKKPGASVKVSCKASGYTFTSYYMHWVRQAPGQGLEWMGIINPSGGSTSYAQKFQGRVTMTRDTSTSTVYMELSSLRSEDTAVYYCARGNYGDEFDYWGQGTLVTVSS
VL: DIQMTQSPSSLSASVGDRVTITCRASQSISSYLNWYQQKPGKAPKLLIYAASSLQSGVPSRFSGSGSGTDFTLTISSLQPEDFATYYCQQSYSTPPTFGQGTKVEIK
A word on the EC50: it is the concentration that produces a half-maximal response. High values mean a less potent agent, low ones a more potent agent. As to B1, in assay [1], a half-maximal effect (EC50) was put at 2.02 nM and the “Max MFI” value was 201 MFI.

B2: AB0237 (F3'-1602 TriNKET) (bispecific antibody, human IgG1, kappa)
chain: QLQLQESGPGLVKPSETLSLTCTVSGFSLTNYGLHWIRQPPGKCLEWIGVIWSGGKTDYNPSLKSRVTISKDTSKNQFSLKLSSVQAADTAVYYCAKYDYDDSLDYWGQGTLVTVSSGGGGSGGGGSGGGGSGGGGSDIQMTQSPSSLSASVGDRVTITCHASQNINFWLSWYQQKPGKAPKLLIYEASNLHTGVPSRFSGSGSGTRFTLTISSLQPEDIATYYCQQSHSYPLTFGCGTKLEIKGSDKTHTCPPCPAPELLGGPSVFLFPPKPKDTLMISRTPEVTCVVVDVSHEDPEVKFNWYVDGVEVHNAKTKPREEQYNSTYRVVSVLTVLHQDWLNGKEYKCKVSNKALPAPIEKTISKAKGQPREPRVYTLPPCRDELTKNQVSLTCLVKGFYPSDIAVEWESNGQPENNYKTTPPVLVSDGSFTLYSKLTVDKSRWQQGNVFSCSVMHEALHNHYTQKSLSLSPG
heavy: EVQLVESGGGLVKPGGSLRLSCAASGFTFSSYSMNWVRQAPGKGLEWVSSISSSSSYIYYADSVKGRFTISRDNAKNSLYLQMNSLRAEDTAVYYCARGAPIGAAAGWFDPWGQGTLVTVSSASTKGPSVFPLAPSSKSTSGGTAALGCLVKDYFPEPVTVSWNSGALTSGVHTFPAVLQSSGLYSLSSVVTVPSSSLGTQTYICNVNHKPSNTKVDKKVEPKSCDKTHTCPPCPAPELLGGPSVFLFPPKPKDTLMISRTPEVTCVVVDVSHEDPEVKFNWYVDGVEVHNAKTKPREEQYNSTYRVVSVLTVLHQDWLNGKEYKCKVSNKALPAPIEKTISKAKGQPREPQVCTLPPSRDELTENQVSLTCLVKGFYPSDIAVEWESNGQPENNYKTTPPVLDSDGSFFLYSWLTVDKSRWQQGNVFSCSVMHEALHNHYTQKSLSLSPG
light: DIQMTQSPSSVSASVGDRVTITCRASQGISSWLAWYQQKPGKAPKLLIYAASSLQSGVPSRFSGSGSGTDFTLTISSLQPEDFATYYCQQGVSFPRTFGGGTKVEIKRTVAAPSVFIFPPSDEQLKSGTASVVCLLNNFYPREAKVQWKVDNALQSGNSQESVTEQDSKDSTYSLSSTLTLSKADYEKHKVYACEVTHQGLSSPVTKSFNRGEC
Regarding B2, in assay [2], the “% Max, ADCP activity of M0 macrophages against PL21 cells” value is 12% and the “EC50, ADCP activity of M0 macrophages against PL21 cells” value is 0.08 nM.

B3: F3'-1602 TriNKET (other)
chain: B2 chain
heavy: B2 heavy
light: B2 light
notes: F3' format TriNKET; also called AB0237
As to B3, the percent surface retention in assay [3] was 106%; in [4] it was 91%. Besides, the EC50 in assay [5] stood at 0.52 nM; in assay [6], 1.01 nM; in [7] it was 1.54 nM. Further, the “FOB (fold over background)” value in assay [5] was found to be 15 fold; in assay [6], 66 fold; in [7] it was 341 fold.

B4: AB0189 (other)
chain: DIKMTQSPSSLSASVGDRVTITCKASQDIYNYLSWFQQKPGKAPKPLIYRANILVSGVPSRFSGSGSGQDYTLTISSLQPEDIATYYCLQFDAFPFTFGCGTKLEIKGGGGSGGGGSGGGGSGGGGSEVQLVESGGGVVQPGGSLRLSCAASGFTFNAFGMHWVRQAPGKCLEWVAFISSGSTSIYYANTVKGRFTISRDNSKNTLYLQMNSLRAEDTAVYYCARDGYPTGGAMDYWGQGTSVTVSSGSDKTHTCPPCPAPELLGGPSVFLFPPKPKDTLMISRTPEVTCVVVDVSHEDPEVKFNWYVDGVEVHNAKTKPREEQYNSTYRVVSVLTVLHQDWLNGKEYKCKVSNKALPAPIEKTISKAKGQPREPRVYTLPPCRDELTKNQVSLTCLVKGFYPSDIAVEWESNGQPENNYKTTPPVLVSDGSFTLYSKLTVDKSRWQQGNVFSCSVMHEALHNHYTQKSLSLSPG
heavy: B2 heavy
light: B2 light
notes: As AB0185
Usually Kd stands for the equilibrium constant for the complex coming apart. As a reminder, the koff is the rate constant with which the complex falls apart. What is called kon is a measure of how fast the partners come together. Regarding B4, in assay [8], the EC50 came to 1.3 nM and the “Max binding MFI” value was 8760 MFI. In addition, in assay [9], the response was half-maximal at 0.7 nM (EC50) and the “Max binding MFI” value is 420 MFI. For the same molecule, in assay [10], the Kd stood at 1.21 nM, the off-rate constant (koff) is 0.00127 s⁻¹ and the on-rate constant (kon) came to 1.04e+06 M⁻¹ s⁻¹.

B5: AB0186 (other)
chain: B4 chain with K3Q, L73F
heavy: B2 heavy
light: B2 light
notes: As AB0185
In the case of B5, in assay [8], the response was half-maximal at 0.7 nM (EC50) and the “Max binding MFI” value was found to be 8160 MFI. In assay [9], the EC50 turned out to be 0.5 nM and the “Max binding MFI” value was found to be 412 MFI. Further, in assay [10], the Kd came to 1.04 nM, the koff was 0.00117 s⁻¹ and the kon turned out to be 1.12e+06 M⁻¹ s⁻¹.

B6: Genentech-h6E7 (antibody, V domains shown)
VH: EVQLVQSGAEVKKPGASVKVSCKASGYSFTDYYMHWVRQAPGQGLEWIGRINPYNGAAFYSQNFKDRVTLTVDTSTSTAYLELSSLRSEDTAVYYCAIERGADLEGYAMDYWGQGTLVTVSS
VL: DIQMTQSPSSLSASVGDRVTITCRASQSVSTSSYNYMHWYQQKPGKPPKLLIKYASNLESGVPSRFSGSGSGTDFTLTISSLQPEDFATYYCQHSWEIPLTFGQGTKVEIK
On to B6, for which, in [1], the response was half-maximal at 5 nM (EC50) and the “Max MFI” value was determined as 265 MFI.

B7: AB0037 mAb (Humanized 1602 anti-CLEC12A mAb) (antibody, V domains shown)
VH: QLQLQESGPGLVKPSETLSLTCTVSGFSLTNYGLHWIRQPPGKGLEWIGVIWSGGKTDYNPSLKSRVTISKDTSKNQFSLKLSSVQAADTAVYYCAKYDYDDSLDYWGQGTLVTVSS
VL: DIQMTQSPSSLSASVGDRVTITCHASQNINFWLSWYQQKPGKAPKLLIYEASNLHTGVPSRFSGSGSGTRFTLTISSLQPEDIATYYCQQSHSYPLTFGGGTKLEIK
Take B7: in [2], the “% Max, ADCP activity of M0 macrophages against PL21 cells” value was found to be 11% and the “EC50, ADCP activity of M0 macrophages against PL21 cells” value was found to be 0.05 nM.
